This is an account of results in publication PMC12217647, “Mid‐Regional Proadrenomedullin Can Be Reliably Measured in Cerebrospinal Fluid to Improve Diagnosis of Central Nervous System Diseases” (Journal of Clinical Laboratory Analysis, 2025).

The conditions of data set [1]: plasma‐EDTA, ref IFU_B.R.A.H.M.S. MR‐proADM KRYPTOR assay, 07 April 2022, cited from earlier work. How it is done:
MR‐proADM concentrations were measured in CSF using the B.R.A.H.M.S. MR‐proADM fluoroimmunoassay on the Brahms Kryptor Gold Analyzer (THERMO […], Hennigsdorf, Germany), which is a fully automated homogeneous phase random access platform. The system uses the TRACE (Time‐Resolved Amplified Cryptate Emission) technology to measure the fluorescence signal emitted by an immunocomplex. MR‐proADM results are expressed in nmol/L. The declared linearity in plasma EDTA samples ranges from 0.21 to 100 nmol/L, with a maximum bias of ±20%. The manufacturer's reference range for EDTA plasma samples i ...

Data set [2] in a line: MR‐proADM stability in CSF samples stored at −80°C. Type of data set: in vitro ADME, human. How it is done:
(§1) MR‐proADM concentrations were measured in CSF using the B.R.A.H.M.S. MR‐proADM fluoroimmunoassay on the Brahms Kryptor Gold Analyzer (THERMO […], Hennigsdorf, Germany), which is a fully automated homogeneous phase random access platform. The system uses the TRACE (Time‐Resolved Amplified Cryptate Emission) technology to measure the fluorescence signal emitted by an immunocomplex. MR‐proADM results are expressed in nmol/L. The declared linearity in plasma EDTA samples ranges from 0.21 to 100 nmol/L, with a maximum bias of ±20%. The manufacturer's reference range for EDTA plasma samples is < 0.56 nmol/L, corresponding to the 97.5th percentile of a control series, which disclosed a median value of 0.38 nmol/L. The Limit of Detection (LoD) is 0.09 nmol/L, while the Limit of Quantitation (LoQ) is 0.21 nmol/L (IFU_B.R.A.H.M.S. MR‐proADM KRYPTOR assay; 07 April 2022; Thermo Scientific, Hennigsdorf, Germany). This MR‐proADM immunoassay is currently certified only for plasma‐EDTA blood samples, and the manufacturer recommends immediate centrifugation to preserve molecular stability at room temperature (18°C–25°C) or at 2°C–8°C up to 24 h. Afterwards, samples should be aliquoted and frozen at −20°C or below. Plasma samples can be kept frozen up to 14 days, and the analyte is considered stable for up to 4 freeze/thaw cycles.
(§2) According to the recommendations in plasma, MR‐proADM was measured in clear CSF samples after centrifugation to avoid interference by cells or other microparticles. Bloody CSF samples were discarded. The first step was aimed at assessing MR‐proADM stability in CSF as a function of different storage temperatures and storage time after collection. To test room temperature stability in CSF, we measured MR‐proADM in 10 fresh samples (T0) and after 12, 24, and 48 h (T1, T2, T3) on the bench (25°C). To test recovery after storage at −20°C, we measured MR‐proADM concentration in 29 CSF samples stored frozen for less than 15, 16 to 60, and more than 60 days. Finally, to test recovery after storage at −80°C, we measured MR‐proADM concentration in 25 CSF samples before and after a variable period of storage at −80°C. The second step of our study was to evaluate the analytical performance of the B.R.A.H.M.S. MR‐proADM method using CSF samples. For this purpose, we evaluated the repeatability and the within‐laboratory precision of this assay. Due to the small amount of CSF volume obtained from each residual sample, 58 CSF samples were pooled in 3 subgroups according to their MR‐proADM values, thus creating 3 pools of about 5 mL volume each, characterized by low, medium, and high MR‐proADM concentration. These pools were finally stored at −20°C.
(§3) To assess the difference between measures of MR‐proADM in fresh samples and after storage at room temperature, at −20°C, and at −80°C, we used the Wilcoxon matched‐paired T test, considering significant p < 0.05.

For data set [3] the following is noted: body fluids; statement of the introduction; cited from earlier work.
Data set [4] can be described thus: MR‐proADM stability in CSF at room temperature (B.R.A.H.M.S. MR‐proADM KRYPTOR fluoroimmunoassay). Type of data set: in vitro ADME, human. How it is done: as §1, §2, §3
A short description of data set [5]: MR‐proADM stability in CSF samples stored at −20°C. Type of data set: in vitro ADME, human. To be noted: for Mean difference pre and post freezing: mean of samples. As to the method:
as §1
as §2, with “−20°C. […]” for “−20°C.”

Values joined by “and” are separate entries in the source; they are usually repeats but may differ in a detail not shown here. Identical values can stand only once.

Consider “Mid‐regional proADM (ELRMSSSYPTGLADVKAGPAQTLIRPQDMKGASRSPEDSSPDAARIRV; MR-proADM; UniProt P35318 45-92, looked up, fragment) [MR‐proADM]”, for which, in data set [1] (room temperature (18°C–25°C) or 2°C–8°C), the “Time of molecular stability after centrifugation” value is given as “up to 24 h”. The “Time plasma samples can be kept frozen” value in data set [1] (−20°C or below) was “up to 14 days”. Besides, the “Freeze/thaw cycles over which the analyte is considered stable” value in data set [1] is on record as “up to 4 freeze/thaw cycles”. For the same substance, the “Stability in CSF samples stored at −80°C (in words)” value in data set [2] (25 CSF samples, variable storage time at −80°C) is reported as “quite stable”. Also, the “Decrement, half of the samples” value in data set [2] (CSF stored at −80°C, 25 samples) is reported as at most 10%. The “Loss of recovery / decrement versus fresh, majority of cases” value in data set [2] (CSF stored at −80°C, p < 0.001 vs fresh) is given as “less than 10%”. For the same substance, the “Storage time at −80°C with very good stability” value in data set [2] (CSF, −80°C) is recorded as “at least 24 months”. The “MR‐proADM concentration, Fresh” value was 0.55 nmol/L and 0.56 nmol/L and 0.77 nmol/L and 0.51 nmol/L and 0.53 nmol/L and 0.59 nmol/L and 0.66 nmol/L and 0.70 nmol/L and 0.89 nmol/L and 1.00 nmol/L and 0.43 nmol/L and 0.57 nmol/L and 0.64 nmol/L and 0.69 nmol/L and 0.75 nmol/L and 0.62 nmol/L and 0.71 nmol/L and 0.73 nmol/L and 0.79 nmol/L and 0.54 nmol/L in data set [2] (baseline before storage at −80°C, 25 individual CSF samples S1–S25, one line per sample); 0.45 nmol/L and 2.67 nmol/L and 0.79 nmol/L and 1.15 nmol/L and 1.23 nmol/L and 0.92 nmol/L and 1.07 nmol/L and 0.94 nmol/L and 0.98 nmol/L and 1.65 nmol/L in data set [4] (T0 baseline, clear centrifuged CSF, 10 individual samples S1–S10, one line per sample, TRACE fluoroimmunoassay, Kryptor). Moreover, in data set [3], the “half‐life compared with ADM (in words)” value is recorded as “longer half‐life”. For the same substance, in data set [4] (CSF on the bench at room temperature (25°C) for 12 h, individual samples S1–S10, one line per sample, p = 0.2918 vs fresh), the “MR‐proADM concentration, After 12 h” value is 0.45 nmol/L and 2.67 nmol/L and 0.80 nmol/L and 1.11 nmol/L and 1.23 nmol/L and 0.91 nmol/L and 1.07 nmol/L and 0.96 nmol/L and 1.63 nmol/L. Further, the “MR‐proADM concentration, After 24 h” value in data set [4] (CSF on the bench at room temperature (25°C) for 24 h, individual samples S1–S10, one line per sample, p = 0.6760 vs fresh) is 0.51 nmol/L and 2.61 nmol/L and 0.80 nmol/L and 1.15 nmol/L and 1.25 nmol/L and 0.93 nmol/L and 1.09 nmol/L and 0.92 nmol/L and 1.67 nmol/L. Moreover, in data set [4] (CSF on the bench at room temperature (25°C) for 48 h, individual samples S1–S10, one line per sample, p = 0.1515 vs fresh), the “MR‐proADM concentration, After 48 h” value is 0.45 nmol/L and 2.74 nmol/L and 0.78 nmol/L and 1.14 nmol/L and 1.27 nmol/L and 0.93 nmol/L and 1.12 nmol/L and 0.97 nmol/L and 0.99 nmol/L and 1.64 nmol/L. The “Stability in CSF samples stored at room temperature (in words)” value in data set [4] (CSF, 25°C, 12, 24 and 48 h, n = 10 samples, no significant difference from fresh) was “highly stable”. In addition, the “Storage time at room temperature over which MR‐proADM remains highly stable in CSF” value in data set [4] (CSF, room temperature (25°C)) is at most 48 h. Further, the entries for the “Mean difference pre and post freezing” value in data set [5] (CSF stored at −20°C for less than 15 days), in data set [5] (CSF stored at −20°C for more than 60 days) and in data set [5] (CSF stored at −20°C from 16 to 60 days) were 14.2%, 18.6% and 15.9%, respectively. Moreover, the “Percentage reduction in some samples” value in data set [5] (CSF stored at −20°C, worst cases) is “up to 50%”.
